Measured values taken from paper PMC4381072, “Short antisense-locked nucleic acids (all-LNAs) correct alternative splicing abnormalities in myotonic dystrophy”.

Biological target: T1, MBNL1 (isoform encoded by exons 1-4) (UniProt Q9NR56 1-269)
T1 sequence: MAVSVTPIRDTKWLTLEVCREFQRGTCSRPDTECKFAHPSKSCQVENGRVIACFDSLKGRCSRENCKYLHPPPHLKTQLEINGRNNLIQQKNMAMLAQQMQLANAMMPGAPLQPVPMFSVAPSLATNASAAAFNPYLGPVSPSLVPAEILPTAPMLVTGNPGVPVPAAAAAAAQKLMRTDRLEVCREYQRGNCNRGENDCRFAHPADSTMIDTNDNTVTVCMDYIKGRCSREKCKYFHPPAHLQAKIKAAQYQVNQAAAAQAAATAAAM
Assay: filter binding; 0-500 nM MBNL1; 0.5 nM oligomer; FBA: FBB (50 mM Tris-HCl pH 8.0, 1 mM MgCl2, 0.05% Tween 20) with 250 mM NaCl and 15 mM KCl, 37 C, 30 min, 30 ul
Conditions: protein: recombinant; tags: N-terminal GST; C-terminal His6; label: radiolabeled; single strand

CAGCAGCA (XNA, all LNA, phosphodiester) [PO-LNA-CAG-8]
binding result: no binding

CAGCAGCAGC (XNA, all LNA, phosphodiester) [PO-LNA-CAG-10]
binding result: no binding
